T1: mouse VTCN1 expressed on 293 cells (mouse, UniProt Q7TSP5 25-257)
T1 construct: whole, on cells
T1 sequence (looked up): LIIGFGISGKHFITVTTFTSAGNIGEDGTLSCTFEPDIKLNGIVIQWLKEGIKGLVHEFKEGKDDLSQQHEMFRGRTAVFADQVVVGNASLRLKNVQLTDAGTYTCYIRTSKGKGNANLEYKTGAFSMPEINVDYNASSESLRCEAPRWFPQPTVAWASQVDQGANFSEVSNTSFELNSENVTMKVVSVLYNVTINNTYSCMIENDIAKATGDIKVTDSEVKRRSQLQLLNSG

T2: human VTCN1 expressed on cells (293-VTCN1 cells; SKBR3, MX-1 and ZR-75-1 cells that express it naturally) (human, UniProt Q7Z7D3 25-282)
T2 construct: The cDNA was bought from Origene
T2 sequence: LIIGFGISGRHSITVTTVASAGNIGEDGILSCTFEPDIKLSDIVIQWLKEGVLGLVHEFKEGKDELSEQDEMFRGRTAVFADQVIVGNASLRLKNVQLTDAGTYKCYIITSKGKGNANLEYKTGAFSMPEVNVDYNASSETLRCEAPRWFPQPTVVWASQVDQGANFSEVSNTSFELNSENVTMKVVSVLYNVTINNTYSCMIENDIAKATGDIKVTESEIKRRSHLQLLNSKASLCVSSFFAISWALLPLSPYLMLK

T3: recombinant human VTCN1-his protein (human, UniProt Q7Z7D3 25-259, limits assumed)
T3 construct: also called human VTCN1 protein; recombinant VTCN1
T3 sequence: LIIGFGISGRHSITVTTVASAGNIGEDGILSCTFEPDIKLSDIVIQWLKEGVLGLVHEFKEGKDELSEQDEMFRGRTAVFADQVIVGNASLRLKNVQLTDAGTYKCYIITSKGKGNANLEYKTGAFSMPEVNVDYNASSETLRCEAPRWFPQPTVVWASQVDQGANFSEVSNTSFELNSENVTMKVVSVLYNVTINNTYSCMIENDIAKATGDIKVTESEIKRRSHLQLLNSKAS

T4: mouse VTCN1 protein (mouse, UniProt Q7TSP5 25-257, limits assumed)
T4 construct: The construct and its tag are not described
T4 sequence (looked up): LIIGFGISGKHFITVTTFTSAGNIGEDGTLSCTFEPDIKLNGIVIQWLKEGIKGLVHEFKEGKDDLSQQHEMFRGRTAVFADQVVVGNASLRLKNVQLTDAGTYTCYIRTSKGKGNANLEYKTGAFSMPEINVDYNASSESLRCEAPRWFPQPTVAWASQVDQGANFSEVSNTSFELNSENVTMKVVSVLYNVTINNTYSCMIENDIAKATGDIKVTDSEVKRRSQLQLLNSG

T5: cynomolgus monkey VTCN1 protein (cynomolgus monkey, UniProt A0A2K5U6P5 25-259)
T5 construct: The construct and its tag are not described; also called cyno VTCN1
T5 sequence: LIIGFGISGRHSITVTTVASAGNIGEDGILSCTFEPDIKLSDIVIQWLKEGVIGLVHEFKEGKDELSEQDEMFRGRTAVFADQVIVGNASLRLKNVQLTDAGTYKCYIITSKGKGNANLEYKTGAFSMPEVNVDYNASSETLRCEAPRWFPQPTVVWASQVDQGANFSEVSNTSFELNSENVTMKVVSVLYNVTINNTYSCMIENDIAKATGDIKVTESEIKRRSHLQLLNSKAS

T6: cynomolgus monkey VTCN1 expressed on 293 cells (cynomolgus monkey, UniProt A0A2K5U6P5 25-282)
T6 construct: whole, on cells
T6 sequence: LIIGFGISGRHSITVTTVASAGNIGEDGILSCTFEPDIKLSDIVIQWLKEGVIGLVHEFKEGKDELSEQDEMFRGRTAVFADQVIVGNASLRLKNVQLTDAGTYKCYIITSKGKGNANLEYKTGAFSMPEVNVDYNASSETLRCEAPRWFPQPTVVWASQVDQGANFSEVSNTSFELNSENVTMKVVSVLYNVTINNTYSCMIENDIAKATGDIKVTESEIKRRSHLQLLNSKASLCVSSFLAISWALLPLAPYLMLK


Assays:
[1] = target: T1, mouse VTCN1 expressed on 293 cells; experiment: flow cytometry, antibody titration on 293-muVTCN1 cells
[2] = target: T2, human VTCN1 expressed on cells …; experiment: flow cytometry, antibody titration on SKBR3 cells (endogenous VTCN1)
[3] = target: T3, recombinant human VTCN1-his protein; experiment: BLI (OCTET), human VTCN1 protein
[4] = target: T2, human VTCN1 expressed on cells …; experiment: flow cytometry, antibody titration on 293-huVTCN1 cells
mouse VTCN1 protein = target: T4, mouse VTCN1 protein; experiment: BLI (OCTET), mouse VTCN1 protein
[5] = target: T3, recombinant human VTCN1-his protein; experiment: BLI (OCTET Red), antibody on Protein A biosensor, recombinant VTCN1-his in solution
[6] = target: T5, cynomolgus monkey VTCN1 protein; experiment: BLI (OCTET Red), antibody on Protein A biosensor, cyno VTCN1
[7] = target: T3, recombinant human VTCN1-his protein; experiment: BLI (OCTET), human VTCN1 protein; remark: listed apart in the source
[8] = target: T6, cynomolgus monkey VTCN1 expressed on …; experiment: flow cytometry, antibody titration on 293-cynoVTCN1 cells
[9] = target: T5, cynomolgus monkey VTCN1 protein; experiment: BLI (OCTET), cynomolgus monkey VTCN1 protein

| EC50 [1] [nM] | EC50 [2] [nM] | Kd [3] [nM] | EC50 [4] [nM] | Kd [5] [nM] | Kd [6] [nM] | Kd [7] [nM] | Binder | also measured |
| --- | --- | --- | --- | --- | --- | --- | --- | --- |
| 45 | 36.8 | 192 | 2.2 | – | – | – | 7G7_44C6 (antibody, V domains shown, Fully human antibody) VH: QVQLQESGPGLVKPSETLSLTCTVSGGSISHYYWSWIRQPPGKGLEWIGYIYYSGPTNYNPSLKSRVTISVDTSKNQFSLKLSSVTAADTAVYYCARTYYYGSGSFPDAFDIWGQGTMVTVSS VL: KIVLTQSPATLSLSPGERATLSCRASQSVSSYLAWYQQTPGQAPRLLIYDASNRATGIPARFSVSGSGTDFTLTISSLEPEDFAVYYCQQRSSWPLTFGGGTKLEIK | – |
| 1.8 | 1.9 | 128 | 1.2 | – | – | – | 13H9_44D2 (antibody, V domains shown, Fully human antibody) VH: QVQLQESGPGLVKPSETLSLTCTVSGGSISSYYWSWIRQPPGKGLEWIGYIYYSGSTNNNPSLKSRVTISVDTSKNQFSLKLISVTAADTAVYYCARVYNNYDWGFDYWGQGTLVTVSS VL: EIVMTQSPATLSVSPGERATLSCRASQSVSSNLAWYQQKPGQAPRLLIYGASTRATGIPARFSGSGSGTEFTLTIRSLQSEDFAVYYCQQYHNWPLTFGGGTKLEIK | Kd (mouse VTCN1 protein): 268 nM |
| – | – | – | – | 4 | 1 | – | 10D1 (antibody, V domains shown, Recombinant mouse antibody made in CHO cells) VH: QVQLQESGPELVKPGASVKLSCKASGYIFTDYTIHWLKQSPGQGLEWIGWIYPGSGHTHYNDKFKGKATMTADKSSTTAYMQLSSLTSEDSAVFFCARGGESITTVFPLAYWGQGTLVTVSA VL: DIVMSQSPSSLAVSVGEKVTMSCKSSQSLLYSSDQKNYLAWYQQKPGQSPKLLIYWASTWESGVPDRFIGSGSGTDFTLTVSSVKAEDLAVYYCHQYYSYPPTFGAGTKLEIK | – |
| – | – | – | – | – | – | 28 | hu6D9_57A3 (antibody, V domains shown, Humanized 6D9) VH: QVQLVESGGGVVQPGRSLRLSCAVSGFSLTSYGVQWVRQAPGKGLEWLGVIWSSGSTDYNAAFLSRLTISKDNSKNTVYFQMNSLRAEDTAVYYCARDVTTIVEGFAHWGQGTLVTVSS VL: DIQMTQSPSSLSASVGDRVTITCKASEKVGTYVSWYQQKPGKAPKLLIYGASNRYTGVPSRFSGSGSGTDFTLTISSLQPEDFATYYCGQTYSYPFTFGQGTKLEIK | – |
| – | – | – | – | – | – | 36 | hu6D9_57A4 (antibody, V domains shown, Humanized 6D9) VH: QVQLVESGPGVVQPGRSLRLSCAVSGFSLTSYGVQWVRQAPGKGLEWLAVIWSSGSTDYNAAFLSRLTISKDNSKSTVYFQMNSLRAEDTAVYYCARDVTTIVEGFAHWGQGTLVTVSS VL: DIQMTQSPSSLSASVGDRVTITCKASEKVGTYVSWYQQKPGKAPKLLIYGASNRYTGVPSRFSGSGSGTDFTLTISSLQPEDFATYYCGQTYSYPFTFGQGTKLEIK | – |
| – | – | – | – | – | – | 27 | hu6D9_66B1 (antibody, V domains shown, Humanized 6D9) VH: QVQLVESGGGVVQPGRSLRLSCAVSGFTFSSYGVQWVRQAPGKGLEWLGVIWSSGSTDYNAAFLSRLTISKDNSKNTVYFQMNSLRAEDTAVYYCARDVTTIVEGFAHWGQGTLVTVSS VL: DIQMTQSPSSLSASVGDRVTITCKASEKVGTYVSWYQQKPGKAPKLLIYGASNRYTGVPSRFSGSGSGTDFTLTISSLQPEDFATYYCGQTYSYPFTFGQGTKLEIK | – |
| – | – | – | – | – | – | 44 | hu6D9_66C2 (antibody, V domains shown, Humanized 6D9) VH: EVQLVESGGGLVQPGGSLRLSCAVSGFSLTSYGVQWVRQAPGKGLEWLGVIWSSGSTDYNAAFLSRLTISKDTSKNTVYFQMNSLRAEDTAVYYCARDVTTIVEGFAHWGQGTLVTVSS VL: DIQMTQSPSSLSASVGDRVTITCKASEKVGTYVSWYQQKPGKAPKLLIYGASNRYTGVPSRFSGSRSGTDFTLTISSLQPEDFATYYCGQTYSYPFTFGQGTKVEIK | – |
| 28.5 | 35.5 | 2 | 9 | – | – | – | 12B5_44B1 (antibody, V domains shown, Fully human antibody) VH: QVQLVQSGAEVKKPGSSMKVSCKASGDTFSSYAISWVRQAPGQGLEWMAGIIPVFGTAHNAQKFQGRVTITADKSTSTAYMELSSLRSEDTAVYYCTRGGPYFDYWGQGTLVTVSS VL: EIVMTQSPATLSVSPGERAALSCRASQSVSSNLAWYQQKPGQAPRLLIYGVSTRATGIPDRFNGSGSGTEFTLTISSLQSEDFGAYYCQQYKKWPFIFGPGTKLEIK | EC50 [8]: 9 nM; Kd [9]: 2 nM; Kd (mouse VTCN1 protein): 38 nM |
| 11.4 | 51.4 | 5 | 4.6 | – | – | – | 14D6_60B5 (antibody, V domains shown, Fully human antibody) VH: QVQLVHSGAEVKRPGSSVKVSCKASGGTFSSYAISWVRQAPGQGLEWMGGIIPIFGIANYAQKFQGRVTIIADKSTRTAYMELSSLRSEDTAVYYCARGGPYFDYWGQGILVTVSS VL: EIVMTQSPATLSVSPGERATLSCRASQSVSSNLAWYQQKPGQAPRLLIYGASTRATGIPARFSGSGSGTEFTLTISSLQSEDFAVYYCQQYNKWPFTFGPGTKVDIK | EC50 [8]: 5.1 nM; Kd [9]: 5 nM; Kd (mouse VTCN1 protein): 56 nM |
| – | – | – | – | 5 | 12 | – | 7F10 (antibody, V domains shown, Recombinant mouse antibody made in CHO cells) VH: QVQLQQSGPGLVQPSQSLSITCTVSGFSLTSYGIHWVRQSPGKGLEWLGVIWSSGSTDYNAAFISRLSISKDNSKSQVFFKMNSLQSDDTAIHYCARDITTIAEGFAYWGQGTLVTVSA VL: NIVMTQSPKSMSMSVGERVTLSCKASENVGTYVSWYQQKPEQSPKLLIYGASNRYTGVPDRFTGSGSATDFTLTISSVQAEDLADYHCGQSYSYPFTFGSGTKLEIK | – |
| – | – | – | – | 2 | 7 | – | 6D9 (antibody, mouse IgG2a, V domains shown, also called 6D9-mIgG2a; murine VTCN1 antibody 6D9) VH: QIQLQQSGPGLVQPSQSLSITCTVSGFSLTSYGVQWIRQSPGKGLEWLGVIWSSGSTDYNAAFLSRLSFSKDNSKSQVFFQMNSLQADDSAIYYCARDVTTIVEGFAHWGQGTLVTVSA VL: NIVMTQSPKSMSMSVGERVTLSCKASEKVGTYVSWYQQKPEQSPKLLIYGASNRYTGVPDRFTGSGSATDFTLTISSVQVEDLADYHCGQTYSYPFTFGSGTKLEIK | – |
| – | – | – | – | 14 | 16 | – | 4C6 (antibody, V domains shown, Recombinant mouse antibody made in CHO cells) VH: QMQLQESGPGLVQPSQSLSITCTVSGFSLTSYGIHWVRQSPGKGLEWLGVIWSSGSTDYNAAFISRLSISKDNSKSQVFFKMNSLQSDDTAIHYCARDITTIAEGFAYWGQGTLVTVSS VL: NIVMTQSPKSMSMSVGERVTLSCKASENVGTYVSWYQQKPEQSPKLLIYGASNRYTGVPDRFTGSGSATDFTLTISSVQAEDLADYHCGQSYSYPFTFGSGTKLEIK | – |
| – | – | – | – | 4 | 12 | – | 5A12 (antibody, V domains shown, Recombinant mouse antibody made in CHO cells) VH: QVQLQQSGPGLVQPSQSLSITCTVSGFSLTSYGVQWVRQSPGKGLEWLGVIWSSGSTDYNAAFISRLSINKDNSKSQVFFKMNSLQPDDTAIYYCARDITTIVEGFAYWGQGTLVTVSA VL: IIVMTQSPKSMSMSVGERVTLSCKASENVGTYVSWYQQKPEQSPKLLIYGASNRYTGVPDRFTGSGSATDFTLTISSVQAEDLADYHCGQSYSYPFTFGSGTKLEIK | – |
